One molecule from article PMC7889895, “Crystal structure of a photosynthetic LH1-RC in complex with its electron donor HiPIP” (Nature Communications, 2021) can be followed below.

In the test the target is light-harvesting 1 - reaction center complex (LH1-RC) of Thermochromatium tepidum (Thermochromatium tepidum, UniProt D2Z0P5 23-404; D2Z0P3 1-281; A8ASG6 1-325; D2Z0P9 1-259; D2Z0P2 1-61; D2Z0P1 …). As to the kind of experiment: crystal structure; co-crystal by micro-batch under oil; HiPIP:LH1-RC mixed 15:1, LH1-RC 0.0694 mM; 30 mM sodium succinate pH 5, 20 mM CaCl2, 3.4% OPC, 30% PEG 1500; 20 °C; 2.9 Å. Conditions: both partners purified.

B1: high-potential iron-sulfur protein (HiPIP) of Thermochromatium tepidum (natural protein, UniProt P80176 1-83, looked up)
chain: AAPANAVTADDPTAIALKYNQDATKSERVAAARPGLPPEEQHCANCQFMQANVGEGDWKGCQLFPGKLINVNGWCASWTLKAG
notes: High-potential iron-sulfur protein (HiPIP), Thermochromatium tepidum strain MC, native protein with its 4Fe-4S cluster, purified in the reduced state; Carries a 4Fe-4S cluster; also called Tch. tepidum HiPIP; source: purified from Tch. tepidum strain MC (soluble fraction of sonicated cells, DEAE column)
As for B1, the “stoichiometry N” value was found to be 1 HiPIP per LH1-RC.
